Tests used:
[1] = biological target: G. haemolysans IgA1P-E1848A (residues 907-2201) (Gemella haemolysans); assay: ELISA; metallo-IgA1P mutant coated on Nunc MaxiSorp plate (20 nM by the methods, 100 nM by the legend of Fig. 2d), blocked 2 h at room temperature, human IgA1 with kappa LC added for 2 h, detected with anti-human IgA HRP and ABTS; estimated Kd
[2] = biological target: S. pneumoniae IgA1P-E1605A (Streptococcus pneumoniae) (UniProt Q59947); assay: as above

“Human IgA1 with kappa LC (monomeric) (antibody)” was tested, and the Kd [1] was 1090 µM and the Kd [2] was 798 µM.

From publication PMC9637739
